Consider four molecules from patent publication US20070003547A1 (published 2007).

One assay concerns the target scorpion toxin (Centruroides noxius, UniProt P01495 17-82). As to the kind of experiment: BIAcore SPR, toxin immobilized, antibody in solution, from kinetic rate constants. Background: In SPR one partner is held on a chip, and binding of the other changes the refractive index at the surface.
The target in a further assay is CD28Ig (human, UniProt P10747 19-152). As to the kind of experiment: ELISA, CD28Ig coated plates, anti-human k conjugate.
A further assay has as its target T1, chicken lysozyme (chicken, UniProt P00698 19-147).
T1 construct: The assay paragraph says only 'lysozyme'; also called chicken lysozyme antigen
As to the kind of experiment: fluorescence quench titration (FIG. 7 legend).

As a reminder, the Kd is the concentration at which binding is half-saturated. A low value points to a tighter complex. In general, EC50 refers to the concentration giving half of the maximal effect. High values mean lower potency in that assay, low ones higher potency in that assay.

B1: humanized BCF2 Fab fragment (Fab, V domains shown)
VH: EVQLVQSGAEVKKPGATVKISCKVSGYTFTDHTMNWVQQAPGKGLEWMGLINPFNGDATYKQKFQGRVTITADTSTDTAYMELSSLRSEDTAVYYCARYGNYAMDYWGQGTTVTVSS
VL: DIVMTQTPLSLSVTPGQPASISCKASQSVDFDGESYMNWYLQKPGQPPQLLIYVVSNLESGVPDRFSGSGSGTDFTLKISRVEAEDVGVYYCQQSNEDPLTFGGGYKVEIKR
The molecule B1 had a Kd with scorpion toxin of 140 nM.

B2: Fab fragment comprised of mouse 9.3 variable domains and human constant domains (Fab, V domains shown)
VH: EVKLQQSGPGLVTPSQSLSITCTVSGFSLSDYGVHWVRQSPGQGLEWLGVIWAGGGTNYNSALMSRKSISKDNSKSQVFLKMNSLQADDTAVYYCARDKGYSYYYSMDYWGQGTSVTVSS
VL: DIELTQSPASLAVSLGQRATISCRASESVEYYVTSLMQWYQQKPGQPPKLLIFAASNVESGVPARFSGSGSGTNFSLNIHPVDEDDVAMYFCQQSRKVPYTFGGGTKLEIKR
As for B2, a half-maximal effect with CD28Ig (EC50) was put at 20 nM.

B3: humanized D1.3 Fab (Fab, V domains shown)
VH: QVQLQESGPGLVKPSETLSLTCTVSGGSVSGYGVNWIRQPPGKGLEWIGMIWGDGNTDYNSSLKSRVTISVDTSKNQFSLKLSSVTAADTAVYYCARERDYRLDYWGQGTLVTVSS
VL: AIRMTQSPFSLSASVGDRVTITCRASGNIHNYLAWYQQKPAKAPKLFIYYTTTLADGVPSRFSGSGSGTDYTLTISSLQPEDFATYYCQHFWSTPRTFGGGTKVEIKR
Take B3: the Ka with chicken lysozyme was above 1e+08 M⁻¹.

B4: (Fab)'2 fragment of mouse BCF2 IgG (other)
chain 1: DIVLTQSPVSLAVSVGQRATISCKASQSVDFDGESYMNWYQQKPGQPPKLLIYVVSNLESGIPARFSGSGSGTDFTLNIHPVEEEDAATYYCQQSNEDPLTFGAGTNLELKR
chain 2: EVQLQQSGPELVKPGASMKISCKVSGYSFTDHTMNWVKQSHGKNLELIGLINPFNGDATYKQKFTGKATLTVDRSSSTAFMELLSLTSEDSAVYYCARYGNYAMDYWGQGTSVTVSS
The molecule B4 registered a Kd with scorpion toxin of 10 nM.
